Here are results for 1 molecule from paper PMC2268108.

By stoichiometry N is commonly meant a count of units in the complex or per binding partner.

In the test the target is T1, KcsA K+ channel, wild type, P0A334.
T1 chain: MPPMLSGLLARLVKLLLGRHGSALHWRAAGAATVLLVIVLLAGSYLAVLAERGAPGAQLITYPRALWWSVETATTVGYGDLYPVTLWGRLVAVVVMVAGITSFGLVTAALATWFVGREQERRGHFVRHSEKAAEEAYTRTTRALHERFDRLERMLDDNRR
As to the kind of experiment: SDS-PAGE of the tetramer. The following applies: remark: other sources report otherwise.

B1: KcsA K+ channel, wild type, P0A334 1-160 (natural protein)
chain: T1 chain
Molecule B1 had a stoichiometry N of 4.
